Columns and labels:
Assay in all cases: cell-based or functional assay
[1] = biological target: HIV-1 Env of isolate 97ZA012 (subtype C) (HIV-1)
[2] = biological target: HIV-1 Env of pseudovirus isolate MGRM-G-025 (HIV-1)
[3] = biological target: HIV-1 envelope glycoprotein (Env) of isolate MGRM-C-022 (HIV-1)
[4] = biological target: HIV-1 Env of isolate 92UG005 (HIV-1)
[5] = biological target: HIV-1 Env of isolate MG RM-D-012 (HIV-1)
[6] = biological target: HIV-1 Env of isolate MG RM-D-018 (HIV-1)
[7] = biological target: HIV-1 Env of isolate MG RM-D-011 (HIV-1)
[8] = biological target: HIV-1 Env of isolate 92BR020 (HIV-1)
[9] = biological target: HIV-1 envelope glycoprotein (Env) of isolate MGRM-C-008 (HIV-1)
[10] = biological target: HIV-1 Env of isolate PVO.4 (subtype B) (HIV-1)
[11] = biological target: HIV-1 envelope glycoprotein (Env) of isolate MGRM-C-025 (HIV-1)
[12] = biological target: HIV-1 Env of isolate MGRM-G-017 (HIV-1)
[13] = biological target: HIV-1 Env of isolate MGRM-G-001 (HIV-1)
[14] = biological target: HIV-1 Env of isolate MGRM-G-014 (HIV-1)
[15] = biological target: HIV-1 93UG077 Env (pseudovirus) (HIV-1)
[16] = biological target: HIV-1 Env of isolate MGRM-G-024 (HIV-1)
[17] = biological target: HIV-1 MGRM-C-026 Env (pseudovirus, clade C) (HIV-1)
[18] = biological target: HIV-1 Env of isolate QH0692.42 (subtype B pseudovirus) (HIV-1)
[19] = biological target: HIV-1 Env of isolate 92UG046 (pseudovirus) (HIV-1)
[20] = biological target: HIV-1 Env of isolate 92UG114 (pseudovirus) (HIV-1)
[21] = biological target: HIV-1 Env of isolate MGRM-AE-008 (HIV-1)
[22] = biological target: HIV-1 92RW020 Env (pseudovirus, clade A) (HIV-1)
[23] = biological target: HIV-1 Env of isolate 98IN022 (HIV-1)
[24] = biological target: HIV-1 Env of isolate MGRM-F1-016 (HIV-1)
[25] = biological target: HIV-1 NL43 Env (pseudovirus, clade B) (HIV-1)
[26] = biological target: HIV-1 MGRM-C-028 Env (pseudovirus, clade C) (HIV-1)
[27] = biological target: HIV-1 Env of isolate 92TH021 (clade AE), on pseudovirus (HIV-1)
[28] = biological target: HIV-1 Env of isolate MGRM-D-003 (pseudovirus) (HIV-1)
[29] = biological target: aMLV envelope, on pseudovirus (negative control virus)
[30] = biological target: HIV-1 Env of pseudovirus MGRM-F1-016 (HIV-1)
[31] = biological target: HIV-1 Env of isolate MGRM-D-016 (clade D pseudovirus) (HIV-1)
[32] = biological target: HIV-1 Env of isolate MGRM-D-020 (clade D pseudovirus) (HIV-1)
[33] = biological target: HIV-1 envelope glycoprotein (Env) of isolate MGRM-A-013, clade A (HIV-1)
[34] = biological target: HIV-1 Env of pseudovirus MGRM-F1-010 (HIV-1)
[35] = biological target: HIV-1 Env of isolate 97ZA012 (clade C) (HIV-1 isolate 97ZA012)
[36] = biological target: HIV-1 Env of pseudovirus MGRM-Chronic-B-012 (HIV-1)
[37] = biological target: HIV-1 Env of pseudovirus MGRM-F1-022 (HIV-1)
[38] = biological target: HIV-1 IAVI-C22 envelope glycoprotein (Env) on pseudovirus (HIV-1)
[39] = biological target: HIV-1 Env of isolate 92UG046 (clade D pseudovirus) (HIV-1)
[40] = biological target: HIV-1 Env of pseudovirus MGRM-G-001 (clade G) (HIV-1)
[41] = biological target: HIV-1 Env of isolate 98CN009 (CRF07 BC) (HIV-1 isolate 98CN009)

4995_E20 (PGT-142) (antibody), sequence (VH): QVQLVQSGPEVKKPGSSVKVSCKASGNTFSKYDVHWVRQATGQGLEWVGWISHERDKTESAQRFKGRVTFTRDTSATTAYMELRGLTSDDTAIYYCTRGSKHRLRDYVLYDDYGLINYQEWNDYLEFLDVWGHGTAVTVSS
4995_E20 (PGT-142) (antibody), sequence (VL): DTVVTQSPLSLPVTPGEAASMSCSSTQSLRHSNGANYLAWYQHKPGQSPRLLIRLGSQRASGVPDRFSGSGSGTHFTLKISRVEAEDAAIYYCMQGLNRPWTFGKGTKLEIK
5329_C19 (PGT-136) (antibody), sequence (VH): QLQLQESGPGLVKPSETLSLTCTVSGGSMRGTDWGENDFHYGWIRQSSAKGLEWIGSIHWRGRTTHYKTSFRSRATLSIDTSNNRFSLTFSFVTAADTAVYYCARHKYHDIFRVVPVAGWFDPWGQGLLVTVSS
5329_C19 (PGT-136) (antibody), sequence (VL): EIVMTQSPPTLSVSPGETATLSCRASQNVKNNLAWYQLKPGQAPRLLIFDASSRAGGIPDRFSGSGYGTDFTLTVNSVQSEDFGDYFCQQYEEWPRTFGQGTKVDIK
4993_K13 (PGT-141) (antibody), sequence (VH): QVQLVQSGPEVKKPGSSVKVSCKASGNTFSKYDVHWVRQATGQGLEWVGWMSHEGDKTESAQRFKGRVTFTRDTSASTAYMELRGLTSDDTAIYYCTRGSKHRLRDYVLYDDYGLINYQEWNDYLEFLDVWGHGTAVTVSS
4970_K22 (PGT-144) (antibody), sequence (VH): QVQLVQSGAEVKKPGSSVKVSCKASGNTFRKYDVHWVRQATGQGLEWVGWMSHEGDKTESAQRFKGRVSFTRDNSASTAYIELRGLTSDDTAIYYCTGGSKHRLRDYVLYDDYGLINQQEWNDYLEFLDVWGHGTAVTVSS
4970_K22 (PGT-144) (antibody), sequence (VL): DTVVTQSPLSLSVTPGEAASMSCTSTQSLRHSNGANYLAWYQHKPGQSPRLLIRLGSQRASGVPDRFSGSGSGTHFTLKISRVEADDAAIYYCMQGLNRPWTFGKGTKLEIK
4980_N08 (PGT-143) (antibody), sequence (VH): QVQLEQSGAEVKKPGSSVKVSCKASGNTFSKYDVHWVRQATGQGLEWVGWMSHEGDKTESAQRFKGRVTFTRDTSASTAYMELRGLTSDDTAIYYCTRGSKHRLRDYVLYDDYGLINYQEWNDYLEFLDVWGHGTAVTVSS
4980_N08 (PGT-143) (antibody), sequence (VL): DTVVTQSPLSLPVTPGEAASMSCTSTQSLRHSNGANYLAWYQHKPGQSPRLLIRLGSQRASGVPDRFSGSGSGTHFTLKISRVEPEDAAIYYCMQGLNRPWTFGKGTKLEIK
5345_I01 (PGT-137) (antibody), sequence (VH): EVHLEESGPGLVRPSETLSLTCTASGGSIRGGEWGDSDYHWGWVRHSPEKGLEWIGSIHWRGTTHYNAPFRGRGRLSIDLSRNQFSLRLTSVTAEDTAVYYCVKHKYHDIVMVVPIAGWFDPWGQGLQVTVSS
5345_I01 (PGT-137) (antibody), sequence (VL): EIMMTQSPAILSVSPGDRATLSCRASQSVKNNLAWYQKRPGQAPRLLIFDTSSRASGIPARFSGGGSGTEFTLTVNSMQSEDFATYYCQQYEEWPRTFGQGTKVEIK

Substance	IC50 neutralization [1]	IC50 (µg/mL), pseudovirus neutralization [2]	IC50 (µg/mL), pseudovirus neutralization [3]	IC50 (µg/mL), pseudovirus neutralization [4]	IC50 (µg/mL), pseudovirus neutralization [5]	IC50 (µg/mL), pseudovirus neutralization [6]	IC50 (µg/mL), pseudovirus neutralization [7]	neutralization IC50 [8]	IC50 (µg/mL), pseudovirus neutralization [9]	IC50 neutralization [10]	IC50 (µg/mL), pseudovirus neutralization [11]	IC50 (µg/mL), pseudovirus neutralization [12]	IC50 (µg/mL), pseudovirus neutralization [13]	IC50 (µg/mL), pseudovirus neutralization [14]	IC50 (neutralizing activity, pseudovirus) [15]	IC50 (µg/mL), pseudovirus neutralization [16]	IC50 neutralization [17]	IC50 neutralization [22]	IC50 neutralization [25]	IC50, pseudovirus neutralization [27]	also measured
5136_H01 (PGT-131) (antibody)	1.81 µg/mL	7.75 µg/mL	0.78 µg/mL	0.854 µg/mL	> 50 µg/mL	0.148 µg/mL	0.756 µg/mL	6.16 µg/mL	> 50 µg/mL	> 50 µg/mL	> 50 µg/mL										
4980_N08 (PGT-143) (antibody)												0.107 µg/mL	0.423 µg/mL	0.107 µg/mL	> 10 µg/mL	0.048 µg/mL					
4993_K13 (PGT-141) (antibody)				> 50 µg/mL								0.164 µg/mL	0.392 µg/mL	0.222 µg/mL	> 10 µg/mL	0.051 µg/mL					
4877_D15 (PGT-122) (antibody)		0.079 µg/mL															0.0089 µg/mL	0.0072 µg/mL	> 10 µg/mL	> 10 µg/mL	IC50 (µg/mL), pseudovirus neutralization [18]: 0.493 µg/mL; IC50, pseudovirus neutralization [19]: > 50 µg/mL; IC50, pseudovirus neutralization [20]: 0.011 µg/mL; IC50 [21]: > 50 µg/mL; neutralization IC50 [23]: 0.032 µg/mL; neutralization IC50 (pseudovirus) [15]: 0.191 µg/mL; IC50 (µg/mL), pseudovirus neutralization [24]: 4.81 µg/mL; IC50 neutralization [26]: 2.06 µg/mL; IC50, pseudovirus neutralization [28]: > 50 µg/mL; IC50, pseudovirus neutralization [29]: > 10 µg/mL
5145_B14 (PGT-127) (antibody)		19.3 µg/mL																			IC50 (µg/mL), pseudovirus neutralization [18]: 0.129 µg/mL; IC50, pseudovirus neutralization [19]: > 50 µg/mL; IC50, pseudovirus neutralization [20]: 7.09 µg/mL; IC50 [21]: > 50 µg/mL; neutralization IC50 [23]: 19.2 µg/mL; IC50 (µg/mL), pseudovirus neutralization [24]: > 50 µg/mL; IC50, pseudovirus neutralization [28]: 0.029 µg/mL
4838_L06 (PGT-121) (antibody)																			> 10 µg/mL	> 10 µg/mL	IC50 (µg/mL), pseudovirus neutralization [18]: 0.823 µg/mL; IC50, pseudovirus neutralization [19]: > 50 µg/mL; IC50, pseudovirus neutralization [20]: 0.004 µg/mL; IC50 [21]: > 50 µg/mL; neutralization IC50 [23]: 0.007 µg/mL; IC50 (µg/mL), pseudovirus neutralization [24]: 0.931 µg/mL; IC50, pseudovirus neutralization [28]: 10.7 µg/mL; IC50, pseudovirus neutralization [29]: > 10 µg/mL
5343_B08 (PGT-135) (antibody)	> 50 µg/mL	0.592 µg/mL	> 50 µg/mL	> 50 µg/mL	> 50 µg/mL	0.039 µg/mL	23.5 µg/mL	0.073 µg/mL	> 50 µg/mL	> 50 µg/mL	> 50 µg/mL				> 10 µg/mL		0.0123 µg/mL	0.157 µg/mL	6.79 µg/mL	> 10 µg/mL	IC50 neutralization [26]: 2.16 µg/mL; IC50, pseudovirus neutralization [29]: > 10 µg/mL
1496_C09 (PG9) (TCN-109) (antibody)												0.104 µg/mL	0.166 µg/mL	16.5 µg/mL		0.163 µg/mL	0.113 µg/mL	0.161 µg/mL	0.687 µg/mL	0.103 µg/mL	IC50 (µg/ml), pseudovirus neutralization [30]: 0.58 µg/mL; IC50 (µg/ml), pseudovirus neutralization [31]: 0.1 µg/mL; IC50 (µg/ml), pseudovirus neutralization [32]: 2.03 µg/mL; IC50 (µg/ml), pseudovirus neutralization [33]: 0.16 µg/mL; IC50 (µg/ml), pseudovirus neutralization [34]: 0.03 µg/mL; IC50 (µg/ml), pseudovirus neutralization [35]: 1.27 µg/mL; IC50 (µg/ml), pseudovirus neutralization [36]: 0.91 µg/mL; IC50 (µg/ml), pseudovirus neutralization [37]: 0.06 µg/mL; IC50 neutralization [26]: 0.121 µg/mL; IC50, pseudovirus neutralization [38]: 24.9 µg/mL; IC50 (µg/ml), pseudovirus neutralization [39]: 0.64 µg/mL; IC50 [40]: 0.16 µg/mL; IC50 (µg/ml), pseudovirus neutralization [41]: 1.07 µg/mL
4970_K22 (PGT-144) (antibody)												9.97 µg/mL	> 50 µg/mL	0.562 µg/mL	> 10 µg/mL	7.92 µg/mL					
5345_I01 (PGT-137) (antibody)	> 50 µg/mL	> 50 µg/mL	> 50 µg/mL	> 50 µg/mL	> 50 µg/mL	15.1 µg/mL	6.3 µg/mL	7.81 µg/mL	> 50 µg/mL	> 50 µg/mL	> 50 µg/mL										
VRC01 (antibody)												0.124 µg/mL	0.0371 µg/mL	0.056 µg/mL		0.025 µg/mL					IC50 [5]: 0.216 µg/mL; IC50 [6]: > 50 µg/mL; IC50 [7]: 0.075 µg/mL; IC50 [24]: 0.517 µg/mL
5114_A19 (PGT-128) (antibody)	0.019 µg/mL	0.017 µg/mL	0.042 µg/mL	0.018 µg/mL	> 50 µg/mL	0.008 µg/mL	0.007 µg/mL	0.009 µg/mL	0.373 µg/mL	0.005 µg/mL	10.5 µg/mL										
5329_C19 (PGT-136) (antibody)	> 50 µg/mL	> 50 µg/mL	> 50 µg/mL	> 50 µg/mL	> 50 µg/mL	> 50 µg/mL	> 50 µg/mL	8.61 µg/mL	> 50 µg/mL	> 50 µg/mL	> 50 µg/mL				> 10 µg/mL		0.0065 µg/mL	0.738 µg/mL	> 10 µg/mL	> 10 µg/mL	IC50 neutralization [26]: > 10 µg/mL; IC50, pseudovirus neutralization [29]: > 10 µg/mL
5147_N06 (PGT-130) (antibody)	1.32 µg/mL	8.45 µg/mL	0.127 µg/mL	0.959 µg/mL	> 50 µg/mL	0.049 µg/mL	0.019 µg/mL	1.4 µg/mL	7.28 µg/mL	5.17 µg/mL	> 50 µg/mL						0.0173 µg/mL	0.014 µg/mL	> 10 µg/mL	0.0082 µg/mL	Neutralization by PGT-130, IC50 [15]: > 10 µg/mL; Neutralization by PGT-130, IC80 [15]: > 10 µg/mL; Neutralization by PGT-130, IC90 [15]: > 10 µg/mL; Neutralization by PGT-130, IC95 [15]: > 10 µg/mL; neutralization IC50 (pseudovirus) [15]: > 10 µg/mL; IC50 neutralization [26]: > 10 µg/mL; IC50, pseudovirus neutralization [29]: > 10 µg/mL
4995_E20 (PGT-142) (antibody)												0.125 µg/mL	0.362 µg/mL	0.076 µg/mL	> 10 µg/mL	0.054 µg/mL					
PGV04 (antibody)												0.065 µg/mL	> 50 µg/mL	0.056 µg/mL		0.033 µg/mL					IC50 (µg/mL), pseudovirus neutralization [8]: 0.25 µg/mL

Reference: US20250320281A1
